Laboratory results: patent publication US20230241187A1

Key:
insulin receptor (IR) [1] = assay: competition ELISA, plate-bound Insulin-R, 20 nM insulin-biotin, competitor […], replicate 2
insulin receptor (IR) [2] = assay: competition ELISA, plate-bound Insulin-R, 20 nM insulin-biotin, competitor 1.95313 nM, replicate 1
insulin receptor (IR) [3] = assay: competition ELISA, plate-bound Insulin-R, 20 nM insulin-biotin, competitor 62.5 nM, average
insulin receptor (IR) [4] = assay: competition ELISA, plate-bound Insulin-R, 20 nM insulin-biotin, competitor […], replicate 1
insulin receptor (IR) [5] = assay: competition ELISA, plate-bound Insulin-R, 20 nM insulin-biotin, competitor 3.90625 nM, replicate 2
insulin receptor (IR) [6] = assay: competition ELISA, plate-bound Insulin-R, 20 nM insulin-biotin, competitor 1000 nM, replicate 1
insulin receptor (IR) [7] = assay: competition ELISA, plate-bound Insulin-R, 20 nM insulin-biotin, competitor 250 nM, replicate 1
insulin receptor (IR) [8] = assay: competition ELISA, plate-bound Insulin-R, 20 nM insulin-biotin, competitor 62.5 nM, replicate 1
insulin receptor (IR) [9] = assay: competition ELISA, plate-bound Insulin-R, 20 nM insulin-biotin, competitor 1000 nM, average
insulin receptor (IR) [10] = assay: competition ELISA, plate-bound Insulin-R, 20 nM insulin-biotin, competitor 15.625 nM, replicate 1
insulin receptor (IR) [11] = assay: competition ELISA, plate-bound Insulin-R, 20 nM insulin-biotin, competitor 7.8125 nM, replicate 1
insulin receptor (IR) [12] = assay: competition ELISA, plate-bound Insulin-R, 20 nM insulin-biotin, competitor 500 nM, replicate 2
insulin receptor (IR) [13] = assay: competition ELISA, plate-bound Insulin-R, 20 nM insulin-biotin, competitor 31.25 nM, average
insulin receptor (IR) [14] = assay: competition ELISA, plate-bound Insulin-R, 20 nM insulin-biotin, competitor 2000 nM, replicate 1
insulin receptor (IR) [15] = assay: competition ELISA, plate-bound Insulin-R, 20 nM insulin-biotin, competitor 7.8125 nM, replicate 2
insulin receptor (IR) [16] = assay: competition ELISA, plate-bound Insulin-R, 20 nM insulin-biotin, competitor 31.25 nM, replicate 2
insulin receptor (IR) [17] = assay: competition ELISA, plate-bound Insulin-R, 20 nM insulin-biotin, competitor 62.5 nM, replicate 2
insulin receptor (IR) [18] = assay: competition ELISA, plate-bound Insulin-R, 20 nM insulin-biotin, competitor 15.625 nM, replicate 2
insulin receptor (IR) [19] = assay: competition ELISA, plate-bound Insulin-R, 20 nM insulin-biotin, competitor 2000 nM, average
insulin receptor (IR) [20] = assay: competition ELISA, plate-bound Insulin-R, 20 nM insulin-biotin, competitor 250 nM, average
insulin receptor (IR) [21] = assay: competition ELISA, plate-bound Insulin-R, 20 nM insulin-biotin, competitor 1000 nM, replicate 2
insulin receptor (IR) [22] = assay: competition ELISA, plate-bound Insulin-R, 20 nM insulin-biotin, competitor 3.90625 nM, average
insulin receptor (IR) [23] = assay: competition ELISA, plate-bound Insulin-R, 20 nM insulin-biotin, competitor 31.25 nM, replicate 1
insulin receptor (IR) [24] = assay: competition ELISA, plate-bound Insulin-R, 20 nM insulin-biotin, competitor 3.90625 nM, replicate 1
insulin receptor (IR) [25] = assay: competition ELISA, plate-bound Insulin-R, 20 nM insulin-biotin, competitor 1.95313 nM, replicate 2
insulin receptor (IR) [26] = assay: competition ELISA, plate-bound Insulin-R, 20 nM insulin-biotin, competitor […], average
insulin receptor (IR) [27] = assay: competition ELISA, plate-bound Insulin-R, 20 nM insulin-biotin, competitor 7.8125 nM, average
insulin receptor (IR) [28] = assay: competition ELISA, plate-bound Insulin-R, 20 nM insulin-biotin, competitor 1.95313 nM, average
insulin receptor (IR) [29] = assay: competition ELISA, plate-bound Insulin-R, 20 nM insulin-biotin, competitor 15.625 nM, average
insulin receptor (IR) [30] = assay: competition ELISA, plate-bound Insulin-R, 20 nM insulin-biotin, competitor 500 nM, replicate 1
insulin receptor (IR) [31] = assay: competition ELISA, plate-bound Insulin-R, 20 nM insulin-biotin, competitor 2000 nM, replicate 2
insulin receptor (IR) [32] = assay: competition ELISA, plate-bound Insulin-R, 20 nM insulin-biotin, competitor 500 nM, average
insulin receptor (IR) [33] = assay: competition ELISA, plate-bound Insulin-R, 20 nM insulin-biotin, competitor 250 nM, replicate 2
insulin receptor (IR) [34] = assay: plate-bound Insulin-R, 20 nM insulin-biotin, 0 nM competitor (ZC1487B26 series), replicate 2
insulin receptor (IR) [35] = assay: plate-bound Insulin-R, 20 nM insulin-biotin, 0 nM competitor (Insulin series), average
insulin receptor (IR) [36] = assay: plate-bound Insulin-R, 20 nM insulin-biotin, 0 nM competitor (IFG-II series), replicate 1
insulin receptor (IR) [37] = assay: plate-bound Insulin-R, 20 nM insulin-biotin, 0 nM competitor (IFG-II series), average
insulin receptor (IR) [38] = assay: plate-bound Insulin-R, 20 nM insulin-biotin, 0 nM competitor (ZC701B20 series), replicate 1
insulin receptor (IR) [39] = assay: plate-bound Insulin-R, 20 nM insulin-biotin, 0 nM competitor (ZC701B20 series), replicate 2
insulin receptor (IR) [40] = assay: plate-bound Insulin-R, 20 nM insulin-biotin, 0 nM competitor (Insulin series), replicate 2
insulin receptor (IR) [41] = assay: plate-bound Insulin-R, 20 nM insulin-biotin, 0 nM competitor (IFG-II series), replicate 2
insulin receptor (IR) [42] = assay: plate-bound Insulin-R, 20 nM insulin-biotin, 0 nM competitor (ZC1487B26 series), average
insulin receptor (IR) [43] = assay: plate-bound Insulin-R, 20 nM insulin-biotin, 0 nM competitor (Insulin series), replicate 1
insulin receptor (IR) [44] = assay: plate-bound Insulin-R, 20 nM insulin-biotin, 0 nM competitor (ZC1487B26 series), replicate 1
insulin receptor (IR) [45] = assay: plate-bound Insulin-R, 20 nM insulin-biotin, 0 nM competitor (ZC701B20 series), average
[46] = target: ConA (ConA-sepharose beads); assay: pull-down on ConA-sepharose beads, GUS activity in flow through

Chain of periodate/borohydride modified ß-glucuronidase (enzyme) (P08236 23-651): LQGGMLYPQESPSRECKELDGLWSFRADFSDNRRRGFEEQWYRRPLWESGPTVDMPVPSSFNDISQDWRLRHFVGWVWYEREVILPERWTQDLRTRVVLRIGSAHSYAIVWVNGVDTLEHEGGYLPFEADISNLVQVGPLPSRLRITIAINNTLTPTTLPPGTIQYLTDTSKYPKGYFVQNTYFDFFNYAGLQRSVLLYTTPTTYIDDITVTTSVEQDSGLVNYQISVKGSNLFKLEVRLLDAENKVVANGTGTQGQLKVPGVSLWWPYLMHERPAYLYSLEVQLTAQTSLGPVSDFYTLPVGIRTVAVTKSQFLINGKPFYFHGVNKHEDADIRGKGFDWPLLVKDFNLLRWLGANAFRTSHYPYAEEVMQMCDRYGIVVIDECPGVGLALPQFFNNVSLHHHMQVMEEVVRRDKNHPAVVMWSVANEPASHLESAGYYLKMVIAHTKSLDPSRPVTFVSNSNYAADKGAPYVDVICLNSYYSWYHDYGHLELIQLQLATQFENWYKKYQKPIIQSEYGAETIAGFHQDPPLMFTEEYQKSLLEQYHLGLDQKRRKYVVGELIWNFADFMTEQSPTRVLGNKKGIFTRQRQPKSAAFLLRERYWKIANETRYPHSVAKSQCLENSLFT

Chemiluminescence Intensity (insulin receptor (IR) [1])	Chemiluminescence Intensity (insulin receptor (IR) [2])	Chemiluminescence Intensity (insulin receptor (IR) [3])	Chemiluminescence Intensity (insulin receptor (IR) [4])	Chemiluminescence Intensity (insulin receptor (IR) [5])	Chemiluminescence Intensity (insulin receptor (IR) [6])	Chemiluminescence Intensity (insulin receptor (IR) [7])	Chemiluminescence Intensity (insulin receptor (IR) [8])	Chemiluminescence Intensity (insulin receptor (IR) [9])	Chemiluminescence Intensity (insulin receptor (IR) [10])	Chemiluminescence Intensity (insulin receptor (IR) [11])	Chemiluminescence Intensity (insulin receptor (IR) [12])	Chemiluminescence Intensity (insulin receptor (IR) [13])	Chemiluminescence Intensity (insulin receptor (IR) [14])	Chemiluminescence Intensity (insulin receptor (IR) [15])	Chemiluminescence Intensity (insulin receptor (IR) [16])	Chemiluminescence Intensity (insulin receptor (IR) [17])	Chemiluminescence Intensity (insulin receptor (IR) [18])	Chemiluminescence Intensity (insulin receptor (IR) [19])	Chemiluminescence Intensity (insulin receptor (IR) [20])	Substance	also measured
229	1050	498	243	1340	43	102	479	34	780	503	57	634	38	1000	517	517	885	25.5	122	Insulin (non-biotinylated control) (from UniProt P01308 25-54; P01308 90-110) (ligand)	Chemiluminescence Intensity (insulin receptor (IR) [21]): 25; Chemiluminescence Intensity (insulin receptor (IR) [22]): 1260; Chemiluminescence Intensity (insulin receptor (IR) [23]): 750; Chemiluminescence Intensity (insulin receptor (IR) [24]): 1180; Chemiluminescence Intensity (insulin receptor (IR) [25]): 1460; Chemiluminescence Intensity (insulin receptor (IR) [26]): 236; Chemiluminescence Intensity (insulin receptor (IR) [27]): 753; Chemiluminescence Intensity (insulin receptor (IR) [28]): 1250; Chemiluminescence Intensity (insulin receptor (IR) [29]): 832; Chemiluminescence Intensity (insulin receptor (IR) [30]): 66; Chemiluminescence Intensity (insulin receptor (IR) [31]): 13; Chemiluminescence Intensity (insulin receptor (IR) [32]): 61.5; Chemiluminescence Intensity (insulin receptor (IR) [33]): 141
919	1410	1110	828	1370	268	644	991	222	1490	1480	379	1320	70	1480	1450	1220	1380	105	605	IGF-II (wild-type, non-biotinylated control ligand) (from UniProt P01344 25-91)	Chemiluminescence Intensity (insulin receptor (IR) [21]): 176; Chemiluminescence Intensity (insulin receptor (IR) [22]): 1420; Chemiluminescence Intensity (insulin receptor (IR) [23]): 1190; Chemiluminescence Intensity (insulin receptor (IR) [24]): 1480; Chemiluminescence Intensity (insulin receptor (IR) [25]): 1250; Chemiluminescence Intensity (insulin receptor (IR) [26]): 874; Chemiluminescence Intensity (insulin receptor (IR) [27]): 1480; Chemiluminescence Intensity (insulin receptor (IR) [28]): 1330; Chemiluminescence Intensity (insulin receptor (IR) [29]): 1430; Chemiluminescence Intensity (insulin receptor (IR) [30]): 356; Chemiluminescence Intensity (insulin receptor (IR) [31]): 140; Chemiluminescence Intensity (insulin receptor (IR) [32]): 368; Chemiluminescence Intensity (insulin receptor (IR) [33]): 566
–	–	–	–	–	–	–	–	–	–	–	–	–	–	–	–	–	–	–	–	Insulin-biotin (biotinylated insulin) (from UniProt P01308 25-54; P01308 90-110) (ligand)	Chemiluminescence Intensity (insulin receptor (IR) [34]): 2070; Chemiluminescence Intensity (insulin receptor (IR) [35]): 1940; Chemiluminescence Intensity (insulin receptor (IR) [36]): 1870; Chemiluminescence Intensity (insulin receptor (IR) [37]): 1920; Chemiluminescence Intensity (insulin receptor (IR) [38]): 1790; Chemiluminescence Intensity (insulin receptor (IR) [39]): 1890; Chemiluminescence Intensity (insulin receptor (IR) [40]): 1690; Chemiluminescence Intensity (insulin receptor (IR) [41]): 1960; Chemiluminescence Intensity (insulin receptor (IR) [42]): 2010; Chemiluminescence Intensity (insulin receptor (IR) [43]): 2180; Chemiluminescence Intensity (insulin receptor (IR) [44]): 1950; Chemiluminescence Intensity (insulin receptor (IR) [45]): 1840
–	–	–	–	–	–	–	–	–	–	–	–	–	–	–	–	–	–	–	–	periodate/borohydride modified ß-glucuronidase (enzyme)	ConA binding activity lost [46]: 60%
